# From US20230303660A1 (published 2023)
# “And” between values parts separate entries of the source, which are not always exact repeats. Identical values can stand only once.
# Legend:
# [1] = molecular target: T1, human 4-1BB (human, UniProt Q07011 24-255); experiment: flow cytometry; dilution series of HEK293T supernatant on Jurkat TPR cells expressing human 4-1BB
# T1 construct: whole, on cells; also called CD137; 4-1BB reporter cells
# From the text: For testing the resulting supernatants, a Triple parameter reporter cell line (TPR) based on the human Jurkat JE6-1 T cell line was used (Jutz et al., 2016). This cell line harbors fluorescent reporter polypeptides to concomitantly assess the activity of three transcription factors, which play major roles during T cell activation: NF-κB::eCFP; NFAT::eGFP and AP-1::mCherry. The TPR reporter cells were transduced to stably express human 4-1BB. For the binding assays, 1×10⁵ 4-1 BB expressing cells in a volume of 10 μl were incubated with 50 μl of the supernatants containing the products according to Table 1. […] After an incubation time of 30 min at 4° C., the samples are washed in FACS-Buffer (1×PBS, 0.5% FCS, 0.005% NaN₃) and stained with a biotinylated Strep-tag II mAb (GenScript, NJ) via adding 5 μl of a 1:150 dilution to each sample and incubation for 20 min on 4° C. Afterwards, samples were washed again and incubated for another 20 min on 4° C. upon adding 5 μl of a 1:200 dilution of Streptavidin-PE (BD Pharmingen, San Diego, CA) to each sample. At last, samples were washed again and subsequently measured via flow cytometry, which was performed on a FACSCalibur flow cytometer (Becton Dickinson Immunocytometry System, San Jose, CA), using the CellQuest software. Data was analyzed with FlowJo (version 10.0.7, Tree Star, Ashland, OR) and Graphpad Prism (version 6, GraphPad Software, Inc., La Jolla, CA).
# [2] = molecular target: T1, human 4-1BB; experiment: cell-based or functional assay
# [3] = molecular target: murine 4-1BB (murine, UniProt P20334 24-256); experiment: cell-based or functional assay
# murine 4-1BB, sequence (P20334 24-256): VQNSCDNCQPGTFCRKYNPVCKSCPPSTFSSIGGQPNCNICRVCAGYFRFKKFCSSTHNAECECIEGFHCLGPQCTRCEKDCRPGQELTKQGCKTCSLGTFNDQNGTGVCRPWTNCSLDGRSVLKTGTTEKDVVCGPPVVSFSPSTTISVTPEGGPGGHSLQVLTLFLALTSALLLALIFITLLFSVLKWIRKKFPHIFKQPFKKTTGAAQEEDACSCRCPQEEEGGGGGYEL
# T1 sequence (Q07011 24-255): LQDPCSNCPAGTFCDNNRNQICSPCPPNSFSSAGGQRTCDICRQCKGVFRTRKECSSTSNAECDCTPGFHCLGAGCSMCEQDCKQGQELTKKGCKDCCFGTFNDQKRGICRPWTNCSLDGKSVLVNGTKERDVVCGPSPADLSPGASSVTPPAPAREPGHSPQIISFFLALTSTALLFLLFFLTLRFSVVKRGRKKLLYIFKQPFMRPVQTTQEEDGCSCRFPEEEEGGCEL
binder,measurement,setting,value
"s4-1BBL-TriXVIII (ligand, HEK293T supernatant; The entry may include the CD5 leader; also called 54-1BBL-TriXVIII; human s4-1BBL-TriXVIII) GSGSNWSHPQFEKGGSGGHHHHHHGGSGGGVRLWATRQAMLGQVHEVPEGWLIFVAEQEELYVRVQNGFRKVQLEARTPLPRGTDNEGSLDLRQGMFAQLVAQNVLLIDGPLSWYSDPGLAGVSLTGGLSYKEDTKELVVAKAGVYYVFFQLELRRVVAGEGSGSVSLALHLQPLRSAAGAAALALTVDLPPASSEARNSAFGFQGRLLHLSAGQRLGVHLHTEARARHAWQLTQGATVLGLFRVTPEIPAGLPSPRSE",supernatant dilution at which binding is still detectable,[1],4096 supernatant dilution (1:x)
"Triple-s4-1BBL (ligand, HEK293T supernatant; Single chain carrying three ectodomains; The entry may include the leader) GSGSNWSHPQFEKGGSGGHHHHHHGGSGGGSLDLRQGMFAQLVAQNVLLIDGPLSWYSDPGLAGVSLTGGLSYKEDTKELVVAKAGVYYVFFQLELRRVVAGEGSGSVSLALHLQPLRSAAGAAALALTVDLPPASSEARNSAFGFQGRLLHLSAGQRLGVHLHTEARARHAWQLTQGATVLGLFRVTPEIPAGLPSPRSEGGGGSGGGGSGGGGSLDLRQGMFAQLVAQNVLLIDGPLSWYSDPGLAGVSLTGGLSYKEDTKELVVAKAGVYYVFFQLELRRVVAGEGSGSVSLALHLQPLRSAAGAAALALTVDLPPASSEARNSAFGFQGRLLHLSAGQRLGVHLHTEARARHAWQLTQGATVLGLFRVTPEIPAGLPSPRSEGGGGSGGGGSGGGGSLDLRQGMFAQLVAQNVLLIDGPLSWYSDPGLAGVSLTGGLSYKEDTKELVVAKAGVYYVFFQLELRRVVAGEGSGSVSLALHLQPLRSAAGAAALALTVDLPPASSEARNSAFGFQGRLLHLSAGQRLGVHLHTEARARHAWQLTQGATVLGLFRVTPEIPAGLPSPRSE",supernatant dilution at which binding is still detectable,[1],4096 supernatant dilution (1:x)
"s4-1BBL (ligand, HEK293T supernatant; also called soluble 4-1BBL) GSGSNWSHPQFEKGGSGGHHHHHHGGSGGGSLDLRQGMFAQLVAQNVLLIDGPLSWYSDPGLAGVSLTGGLSYKEDTKELVVAKAGVYYVFFQLELRRVVAGEGSGSVSLALHLQPLRSAAGAAALALTVDLPPASSEARNSAFGFQGRLLHLSAGQRLGVHLHTEARARHAWQLTQGATVLGLFRVTPEIPAGLPSPRSE",NF-κB activation measured through eCFP expression (fold induction),[2],8 final supernatant dilution (1:x)
same,supernatant dilution at which binding is still detectable,[1],1600 supernatant dilution (1:x)
"s4-1BBL-TNC (ligand, HEK293T supernatant; The entry may include the CD5 leader; also called comparison 3) GSGSNWSHPQFEKGGSGGHHHHHHGGSGGTRACGCAAAPDIKDLLSRLEELEGLVSSLREQGSLDLRQGMFAQLVAQNVLLIDGPLSWYSDPGLAGVSLTGGLSYKEDTKELVVAKAGVYYVFFQLELRRVVAGEGSGSVSLALHLQPLRSAAGAAALALTVDLPPASSEARNSAFGFQGRLLHLSAGQRLGVHLHTEARARHAWQLTQGATVLGLFRVTPEIPAGLPSPRSE",NF-κB activation measured through eCFP expression (fold induction),[2],~50 % of effect lost at a dilution of 1:8
same,supernatant dilution at which binding is still detectable,[1],128 supernatant dilution (1:x)
murine (m)s4-1BBL-TriXVIII (ligand) GVRLWATRQAMLGQVHEVPEGWLIFVAEQEELYVRVQNGFRKVQLEARTPLPRGTDNEGSRTEPRPALTITTSPNLGTRENNADQVTPVSHIGCPNTTQQGSPVFAKLLAKNQASLCNTTLNWHSQDGAGSSYLSQGLRYEEDKKELVVDSPGLYYVFLELKLSPTFTNTGHKVQGWVSLVLQAKPQVDDFDNLALTVELFPCSMENKLVDRSWSQLLLLKAGHRLSVGLRAYLHGAQDAYRDWELSYPNTTSFGLFLVKPDNPWE,NF-κB activation measured through eCFP expression (fold induction),[3],15600 final supernatant dilution (1:x) and 500 supernatant dilution (1/x)
s4-1BBL-TriXVIII^LL (ligand) GSGSNWSHPQFEKGGSGGHHHHHHGGSGGTRSGAGGSGGSSGSDGASGSGVRLWATRQAMLGQVHEVPEGWLIFVAEQEELYVRVQNGFRKVQLEARTPLPRGTDNEGSLDLRQGMFAQLVAQNVLLIDGPLSWYSDPGLAGVSLTGGLSYKEDTKELVVAKAGVYYVFFQLELRRVVAGEGSGSVSLALHLQPLRSAAGAAALALTVDLPPASSEARNSAFGFQGRLLHLSAGQRLGVHLHTEARARHAWQLTQGATVLGLFRVTPEIPAGLPSPRSE,NF-κB activation measured through eCFP expression (fold induction),[2],64 final supernatant dilution (1:x) and 8 supernatant dilution (1:x)
"s4-1BBLsh-TriXVIII (ligand, HEK293T supernatant, used without purification; The entry may include the CD5 leader; also called 54-1BBLsh-TriXVIII; s4-1BBL-short (sh) minimal polypeptide) GSGSNWSHPQFEKGGSGGHHHHHHGGSGGGVRLWATRQAMLGQVHEVPEGWLIFVAEQEELYVRVQNGFRKVQLEARTPLPRGTDNEGSGMFAQLVAQNVLLIDGPLSWYSDPGLAGVSLTGGLSYKEDTKELVVAKAGVYYVFFQLELRRVVAGEGSGSVSLALHLQPLRSAAGAAALALTVDLPPASSEARNSAFGFQGRLLHLSAGQRLGVHLHTEARARHAWQLTQGATVLGLFRVTP",supernatant dilution at which binding is still detectable,[1],2080 supernatant dilution (1:x)
